One assay addresses His-mAKAP 1286–1833. Kind of assay: SPR.
Assay [1] has as its target myc-tagged full-length mAKAPβ with an internal deletion of residues 1257–1886. The assay can be described thus: co-IP.

With “His-RSK3, full-length, ERK-phosphorylated (from UniProt Q15349 1-733) (enzyme)”, the fold decrease of binding affinity against unphosphorylated RSK3 in the assay with His-mAKAP 1286–1833 was found to be 5 fold.

Consider “His-RSK3, full-length, ERK and PDK1-phosphorylated (from UniProt Q15349 1-733) (enzyme)”, for which the fold decrease of binding affinity against unphosphorylated RSK3 with His-mAKAP 1286–1833 turned out to be 8 fold.

As to “HA-tagged RSK3 (type 3 p90 ribosomal S6 kinase) (from UniProt Q15349 1-733) (enzyme)”, the percent reduction of RSK3 binding against full-length mAKAPβ in assay [1] was > 85%.

Values taken from article PMC3537852.
